Source: US11225653B2, “Methods and compounds for reducing threonyl-tRNA synthetase activity” (University of Vermont and State Agricultural College, priority 2012, dated 2022)
Entries after “also recorded” stand apart in the source; their conditions may differ.

T1: human TARS (Homo sapiens, UniProt P26639)
T1 construct: His6 (N); made in house; host or cells: E. coli Rosetta 2(DE3)pLysS, plasmid pET28a hctThrRS
T1 sequence (P26639 1-723): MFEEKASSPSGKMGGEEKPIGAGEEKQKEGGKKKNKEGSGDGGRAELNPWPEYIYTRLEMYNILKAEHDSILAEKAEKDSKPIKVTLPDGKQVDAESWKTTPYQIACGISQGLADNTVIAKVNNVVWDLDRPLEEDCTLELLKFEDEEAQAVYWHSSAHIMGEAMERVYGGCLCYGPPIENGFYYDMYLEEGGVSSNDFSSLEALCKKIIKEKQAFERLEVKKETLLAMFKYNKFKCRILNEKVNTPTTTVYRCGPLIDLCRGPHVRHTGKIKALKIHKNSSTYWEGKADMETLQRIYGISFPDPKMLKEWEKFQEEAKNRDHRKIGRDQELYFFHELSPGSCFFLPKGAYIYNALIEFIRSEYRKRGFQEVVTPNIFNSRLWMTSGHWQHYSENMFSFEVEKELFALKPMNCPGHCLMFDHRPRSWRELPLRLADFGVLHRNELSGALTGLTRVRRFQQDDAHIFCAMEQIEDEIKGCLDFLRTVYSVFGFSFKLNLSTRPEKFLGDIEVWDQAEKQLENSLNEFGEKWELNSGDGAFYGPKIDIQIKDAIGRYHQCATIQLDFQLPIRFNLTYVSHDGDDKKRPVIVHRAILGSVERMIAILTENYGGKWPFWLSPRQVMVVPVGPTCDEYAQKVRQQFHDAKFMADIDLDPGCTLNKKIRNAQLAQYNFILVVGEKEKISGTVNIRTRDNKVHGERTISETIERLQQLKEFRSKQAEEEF


Tests used:
[1] = test system: Human umbilical vein endothelial cells (HUVECs); test: In vitro endothelial tube formation assay; assay type: cell-based
Description: In vitro Tube Formation Assay-Tube formation assays were performed as described (Arnaoutova and Kleinman 2010; Cassavaugh, Hale et al. 2011). Human Umbilical Vein Endothelial Cells (HUVECs) were seeded in 48-well plates (1.5×10^4 cells/well) coated with 100 μl of Matrigel™ Basement Membrane Matrix Growth Factor Reduced (BD Biosciences, San Jose, Calif.) and incubated in Clonetics® EGM®-2 complete media (Lonza, Annandale, N.J.) or EGM®-2 with reduced serum (0.2% fetal bovine serum). Cells were incubated at 37° C. for 6 h then fixed in 10% formalin. Fixed samples were imaged by phase-contrast microscopy or stained with Oregon Green 488 Phalloidin (Molecular Probes, Eugene, Oreg.) then imaged with fluorescence microscopy (2× objective). Number of tubes and tube lengths (in pixels) were quantified using the Simple Neurite Tracer (Longair, Baker et al. 2011) plug-in on ImageJ software (NIH). Statistical analysis of one-way ANOVA was performed with GraphPad Software. Multiple comparisons were performed using the Tukey Test.

[2] = test system: HUVECs; test: Endothelial cell proliferation assay (alamarBlue); assay type: cell-based, human
Description: Endothelial Cell Proliferation Assay—The […] alamarBlue® (Invitrogen) reagent was used to assess cell proliferation (Ahmed, Gogal et al. 1994). HUVECs were seeded in a 96-well dish (1×10^3 cells/well) and grown for 48 h in EGM®-2 media. Cells were incubated in 0.2% FBS EGM®-2 media or EGM®-2 complete media as indicated; VEGF (50 ng/ml) and media alone served as controls. After 48 h, 72 h, or 96 h in culture, 10 μl/well premixed alamarBlue® (Invitrogen) was added and after 3 h at 37° C. the amount of reduced alamarBlue® was quantified by fluorescence (excitation at 530 nm, emission at 590 nm) on a microplate reader (Synergy™ HT, BioTek, Winooski, Vt.).

[3] = test system: chorioallantoic membrane (CAM); test: Chick chorioallantoic membrane (CAM) assay; assay type: in vivo, chicken
Description: Chick Chorioallantoic Membrane Assay-Fertilized chicken eggs (Sunrise Farms, Catskill, N.Y.) day 1-2 post-laying were incubated in a humidified incubator at 37° C. for 72 h. Cleaned eggs were cracked and plated in a sterile 10 cm^2 tissue culture-treated dish and incubated at 37° C. for another 7 days. On developmental day 10, 1 mm^3 sterile gelatin sponge pieces (Surgifoam®; Johnson & Johnson Wound Management, Somerville, N.J.) were placed within the outer one-third of the membrane between large vessels. 40 μg/ml human bFGF and 2 μg/mL human VEGF were used as pro-angiogenic control compounds; 100 μg/mL retinoic acid (Sigma-Aldrich, St. Louis, Mo.) diluted in phosphate-buffered saline (PBS) was used as an angiostatic control. All compounds were applied in 10 μl to the CAM every 24 h for 72 h. Images were taken using a Leica MZ6 stereomicroscope every 24 h. Compounds were scored according to a modified version of Intensity Scoring as previously described (Ribatti, Nico et al. 2006). Briefly, each experimental condition was given a blinded score from 0-5 based on the change in the extent of vessel convergence and formation in proximity to the sponge from day 0 to day 3. Total score is averaged individual experimental condition scores from at least 15 replicates.
Fertilized chicken embryos were cultured ex-ova and, starting at developmental day 10, agents were applied daily to gelfoam sponges on the CAM. Images were recorded daily over 72 h and scored blindly according to a modified version Intensity Scoring as previously described (Ribatti, Nico et al. 2006). Additional details regarding methods are provided in the Methods and Materials section of Example 1.

[4] = test system: HUVEC; test: Transwell migration assay; assay type: cell-based, human; settings: 4 h
Description: Transwell Migration Assay—Migration was assessed using transwell inserts (Svensson, Kucharzewska et al. 2011). HUVEC cultures were serum-depleted overnight in Clonetics® EGM®-2 modified with 0.2% fetal bovine serum then 5×10^4 cells were plated in 90% EBM®-2, 10% EGM®-2 in the upper chamber of 0.2% gelatin-coated 24-well 8 μm Transwell® inserts (Corning, Tewksbury, Mass.) with 90% EBM®-2, 10% EGM®-2 media plus 50 ng/ml VEGF, 1-100 nM TARS protein, or 10 nM BC194 in the lower chamber. Cultures were incubated for 4 h, fixed in 10% formalin, and stained with 10 μg/ml DAPI solution (Roche) following removal of cells from the top layer of the chamber with a cotton swab. Migrated cells were imaged using a 4× objective on the Olympus 1×70 Inverted microscope (Olympus). DAPI-stained nuclei were counted using ImageJ software.

[5] = biological target: T1, human TARS; test: Ap4A formation assay; assay type: biochemical; settings: FIGS. 17C and 17D, 10 μM compound
Description: (§1) TARS purification and active site determination were performed as previously described (Williams, Mirando et al., 2013). TARS non-canonical catalytic activities were characterized using modifications from published methods (Guo, Chong et al. 2009). For Ap4A reactions 5 μM of wildtype TARS or R442A TARS were incubated for 10 minutes on ice with 2 mM threonine, and 10 μM BC194 or borrelidin as indicated in FIG. 17C. Reactions were initiated using 2 mM ATP with trace amounts of [α-^32P]-ATP as label. At specific time points aliquots were quenched in 3 volumes of 0.1% SDS, 400 mM sodium acetate and resolved on polyethyleneimine-cellulose plates by thin-layer chromatography (TLC) in 3 M NH4 (SO4)2 and 2% EDTA. Radioactive counts were identified by phosphorimaging and products quantified as fractions of total ATP added. The quantitation of product was normalized to take into account the fact that each Ap4A molecule has two equivalents of radioactive phosphorus.

[6] = biological target: T1, human TARS; test: GTPase assay (GTP hydrolysis); assay type: biochemical; settings: 10 μM BC194 or 10 μM borrelidin
[7] = test system: human TARS; test: Steady state aminoacylation assay; assay type: biochemical; settings: purified protein
Description: Steady State Aminoacylation Assay-The aminoacylation activities of the TARS constructs were determined using modifications to established procedures ([…] et al 2008). Briefly, reaction mixtures consisted of 20 mM Tris-HCl pH 8.0, 100 mM KCl, 10 mM MgCl2, 1 mM dithiothreitol, 2 mM ATP, 2.5 U pyrophosphatase (Roche), 80 μM threonine, 20 μM [14C]-threonine, and 5 μM of E. coli or human […]. Reactions were initiated with the addition of 0.25-0.75 μM TARS and run at 37° C. Aliquots were taken at varying time points and spotted onto Whatmann 3MM paper filters pre-soaked in 5% trichloroacetic acid (TCA). Upon completion, the filters were washed 3 times in excess TCA, once in 95% ethanol, and dried under a heating lamp. The formation of […] was detected by scintillation counter and the activity determined by linear regression of […] formed per active site per unit time.

[8] = test system: human TARS; test: Ap4A formation assay; assay type: biochemical; settings: 5 μM enzyme, 2 mM threonine, 2 mM ATP
Description: as §1

[9] = test system: human TARS; test: Ap4G formation assay; assay type: biochemical; settings: 2 mM ATP, 2 mM threonine, 2 mM GTP
[10] = test system: human TARS; test: GTPase assay (GTP hydrolysis); assay type: biochemical; settings: 2 mM GTP

Molecule	tube (branch) length ([1]; HUVECs on Matrigel, range of BC194 concentrations)	effect on VEGF proliferative response ([2]; 10 nM BC194, 50 ng/ml VEGF, low serum media)	inhibition of vessel formation on the CAM ([3]; daily application to gel sponge, basal, bFGF (40 μg/ml) or VEGF (2 μg/ml) stimulated)	effect on VEGF- and TARS-mediated migration ([4]; 10 nM BC194 with 50 ng/ml VEGF or 100 nM TARS)	inhibition of Ap4A and Ap4G synthesis (in words) [5]	change of TARS GTPase activity upon treatment [6]	number of tube branches after exogenous protein ([1]; 100 nM purified recombinant human TARS in low serum media (0.2% FBS), 6 h)	cell proliferation with TARS ([2]; HUVECs in low serum (0.2% FBS) media)	sensitivity of protein-stimulated CAM vessel formation to BC194 ([3]; protein applied together with BC194)	vessel formation / vascularization on the CAM after applied protein ([3]; purified protein applied daily to sponge, scored over 72 h)	migration of endothelial cells ([4]; 100 nM TARS or 100 nM LARS in migration compartment)	aminoacylation activity of the protein [7]	production of Ap4A [8]	rate of Ap4G formation [9]	GTP hydrolysis [10]
C[C@@H]1C[C@H](C)C[C@H](C)[C@@H](O)CC(=O)O[C@H]([C@@H]2CC[C@H]2C(=O)O)C/C=C/C=C(/C#N)[C@H](O)[C@@H](C)C1 [BC194, reference compound]	does not affect endothelial tube branch length	did not significantly reduce the VEGF proliferative response	inhibited vessel formation at both the basal level and after stimulation with either bFGF or VEGF	reduced both the migration effects of VEGF and TARS	at least partially inhibited	no observable change									
C[C@@H]1C[C@H](C)C[C@H](C)[C@@H](O)CC(=O)O[C@H]([C@@H]2CCC[C@H]2C(=O)O)C/C=C/C=C(/C#N)[C@H](O)[C@@H](C)C1 [borrelidin, reference compound]					at least partially inhibited	no observable change									
TARS: N-terminal His6-tagged human threonyl-tRNA synthetase expressed and purified from E. coli (protein, UniProt P26639 1-723, looked up, N-terminal His6 tag, N-terminal His6-tagged human threonyl-tRNA synthetase expressed and purified from E. coli) Threonine--tRNA ligase 1, …: MFEEKASSPSGKMGGEEKPIGAGEEKQKEGGKKKNKEGSGDGGRAELNPWPEYIYTRLEMYNILKAEHDSILAEKAEKDSKPIKVTLPDGKQVDAESWKTTPYQIACGISQGLADNTVIAKVNNVVWDLDRPLEEDCTLELLKFEDEEAQAVYWHSSAHIMGEAMERVYGGCLCYGPPIENGFYYDMYLEEGGVSSNDFSSLEALCKKIIKEKQAFERLEVKKETLLAMFKYNKFKCRILNEKVNTPTTTVYRCGPLIDLCRGPHVRHTGKIKALKIHKNSSTYWEGKADMETLQRIYGISFPDPKMLKEWEKFQEEAKNRDHRKIGRDQELYFFHELSPGSCFFLPKGAYIYNALIEFIRSEYRKRGFQEVVTPNIFNSRLWMTSGHWQHYSENMFSFEVEKELFALKPMNCPGHCLMFDHRPRSWRELPLRLADFGVLHRNELSGALTGLTRVRRFQQDDAHIFCAMEQIEDEIKGCLDFLRTVYSVFGFSFKLNLSTRPEKFLGDIEVWDQAEKQLENSLNEFGEKWELNSGDGAFYGPKIDIQIKDAIGRYHQCATIQLDFQLPIRFNLTYVSHDGDDKKRPVIVHRAILGSVERMIAILTENYGGKWPFWLSPRQVMVVPVGPTCDEYAQKVRQQFHDAKFMADIDLDPGCTLNKKIRNAQLAQYNFILVVGEKEKISGTVNIRTRDNKVHGERTISETIERLQQLKEFRSKQAEEEF							significantly increased the number of tube branches; also recorded: promotes angiogenesis	did not exert a significant effect on cell proliferation; also recorded: does not significantly affect cell proliferation	sensitive to BC194	stimulated vessel formation; also recorded: induces in vivo angiogenesis	significantly increased migration of endothelial cells; also recorded: selectively induces migration of endothelial cells	exhibits aminoacyl synthetase activity	0.1391 Ap4A/active site/min	0.1639 Ap4G/active site/min	0.3033 GDP/active site/min
